The experiment addresses T1, GST-clathrin 1–494 (human, UniProt Q00610 1-494).
T1 construct: clathrin, human, residues 1-494, in pGEX-6P1; source: E. coli BL21, purified (glutathione-Sepharose 4B, eluted with GSH); not shown: GST, N-terminal, kept
T1 sequence (looked up): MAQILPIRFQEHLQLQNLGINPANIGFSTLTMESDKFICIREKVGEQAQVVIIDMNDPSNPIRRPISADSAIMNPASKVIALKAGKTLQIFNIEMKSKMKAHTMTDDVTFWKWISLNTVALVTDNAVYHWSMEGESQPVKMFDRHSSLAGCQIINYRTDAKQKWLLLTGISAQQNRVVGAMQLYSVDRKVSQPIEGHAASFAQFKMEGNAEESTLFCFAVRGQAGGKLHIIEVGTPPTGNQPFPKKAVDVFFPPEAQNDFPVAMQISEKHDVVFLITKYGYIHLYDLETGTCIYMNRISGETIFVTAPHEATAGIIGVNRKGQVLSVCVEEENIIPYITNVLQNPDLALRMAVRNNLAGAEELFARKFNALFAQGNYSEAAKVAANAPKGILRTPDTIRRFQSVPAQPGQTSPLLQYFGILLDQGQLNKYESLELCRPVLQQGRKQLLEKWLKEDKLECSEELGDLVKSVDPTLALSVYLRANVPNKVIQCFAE
Nature of the experiment: pull-down; β-arrestin-1-F2Y mutants (300 nM) incubated with equal concentrations of GST-clathrin and V2R-phospho-peptide (V2Rpp), or without peptide; pulled down with GST beads; bound β-arrestin-1 detected by western blot with a β-arrestin-1 antibody. The conditions noted are these: both partners purified. A general note: A western blot detects proteins with antibodies after separation by electrophoresis.

B1: β-arrestin-1-D383-F2Y (natural protein, bovine, UniProt P17870 1-418, looked up)
chain: MGDKGTRVFKKASPNGKLTVYLGKRDFVDHIDLVEPVDGVVLVDPEYLKERRVYVTLTCAFRYGREDLDVLGLTFRKDLFVANVQSFPPAPEDKKPLTRLQERLIKKLGEHAYPFTFEIPPNLPCSVTLQPGPEDTGKACGVDYEVKAFCAENLEEKIHKRNSVRLVIRKVQYAPERPGPQPTAETTRQFLMSDKPLHLEASLDKEIYYHGEPISVNVHVTNNTNKTVKKIKISVRQYADICLFNTAQYKCPVAMEEADDTVAPSSTFCKVYTLTPFLANNREKRGLALDGKLKHEDTNLASSTLLREGANREILGIIVSYKVKVKLVVSRGGLLGDLASSDVAVELPFTLMHPKPKEEPPHREVPEHETPVDTNLIELDTNYDDIVFEDFARQRLKGMKDDKEEEEDGTGSPRLNDR
modifications: 3,5-difluorotyrosine (F2Y) at 383
notes: β-arrestin-1, bovine, full-length cDNA in pET22b, amber codon at D383 read as F2Y; source: E. coli BL21 (DE3) with pEVOL-F2YRS and F2Y in the medium, purified (Ni-NTA, gel filtration)
For the molecule B1, the binding result is “binds”.

B2: β-arrestin-1-K107-F2Y (natural protein, bovine, UniProt P17870 1-418, looked up)
chain: MGDKGTRVFKKASPNGKLTVYLGKRDFVDHIDLVEPVDGVVLVDPEYLKERRVYVTLTCAFRYGREDLDVLGLTFRKDLFVANVQSFPPAPEDKKPLTRLQERLIKYLGEHAYPFTFEIPPNLPCSVTLQPGPEDTGKACGVDYEVKAFCAENLEEKIHKRNSVRLVIRKVQYAPERPGPQPTAETTRQFLMSDKPLHLEASLDKEIYYHGEPISVNVHVTNNTNKTVKKIKISVRQYADICLFNTAQYKCPVAMEEADDTVAPSSTFCKVYTLTPFLANNREKRGLALDGKLKHEDTNLASSTLLREGANREILGIIVSYKVKVKLVVSRGGLLGDLASSDVAVELPFTLMHPKPKEEPPHREVPEHETPVDTNLIELDTNDDDIVFEDFARQRLKGMKDDKEEEEDGTGSPRLNDR
modifications: 3,5-difluorotyrosine (F2Y) at 107
notes: β-arrestin-1, bovine, full-length cDNA in pET22b, amber codon at K107 read as F2Y; source: E. coli BL21 (DE3) with pEVOL-F2YRS and F2Y in the medium, purified (Ni-NTA, gel filtration)
With B2, the binding result is “binds”.

B3: β-arrestin-1-R7-F2Y (natural protein, bovine, UniProt P17870 1-418, looked up)
chain: MGDKGTYVFKKASPNGKLTVYLGKRDFVDHIDLVEPVDGVVLVDPEYLKERRVYVTLTCAFRYGREDLDVLGLTFRKDLFVANVQSFPPAPEDKKPLTRLQERLIKKLGEHAYPFTFEIPPNLPCSVTLQPGPEDTGKACGVDYEVKAFCAENLEEKIHKRNSVRLVIRKVQYAPERPGPQPTAETTRQFLMSDKPLHLEASLDKEIYYHGEPISVNVHVTNNTNKTVKKIKISVRQYADICLFNTAQYKCPVAMEEADDTVAPSSTFCKVYTLTPFLANNREKRGLALDGKLKHEDTNLASSTLLREGANREILGIIVSYKVKVKLVVSRGGLLGDLASSDVAVELPFTLMHPKPKEEPPHREVPEHETPVDTNLIELDTNDDDIVFEDFARQRLKGMKDDKEEEEDGTGSPRLNDR
modifications: 3,5-difluorotyrosine (F2Y) at 7
notes: β-arrestin-1, bovine, full-length cDNA in pET22b, amber codon at R7 read as F2Y; source: E. coli BL21 (DE3) with pEVOL-F2YRS and F2Y in the medium, purified (Ni-NTA, gel filtration)
As for B3, the binding result was “binds”.

B4: β-arrestin-1-F75-F2Y (natural protein, bovine, UniProt P17870 1-418, looked up)
chain: MGDKGTRVFKKASPNGKLTVYLGKRDFVDHIDLVEPVDGVVLVDPEYLKERRVYVTLTCAFRYGREDLDVLGLTYRKDLFVANVQSFPPAPEDKKPLTRLQERLIKKLGEHAYPFTFEIPPNLPCSVTLQPGPEDTGKACGVDYEVKAFCAENLEEKIHKRNSVRLVIRKVQYAPERPGPQPTAETTRQFLMSDKPLHLEASLDKEIYYHGEPISVNVHVTNNTNKTVKKIKISVRQYADICLFNTAQYKCPVAMEEADDTVAPSSTFCKVYTLTPFLANNREKRGLALDGKLKHEDTNLASSTLLREGANREILGIIVSYKVKVKLVVSRGGLLGDLASSDVAVELPFTLMHPKPKEEPPHREVPEHETPVDTNLIELDTNDDDIVFEDFARQRLKGMKDDKEEEEDGTGSPRLNDR
modifications: 3,5-difluorotyrosine (F2Y) at 75
notes: β-arrestin-1, bovine, full-length cDNA in pET22b, amber codon at F75 read as F2Y; source: E. coli BL21 (DE3) with pEVOL-F2YRS and F2Y in the medium, purified (Ni-NTA, gel filtration)
Consider B4, for which the binding result is listed as “binds”.

B5: β-arrestin-1-F388-F2Y (natural protein, bovine, UniProt P17870 1-418, looked up)
chain: MGDKGTRVFKKASPNGKLTVYLGKRDFVDHIDLVEPVDGVVLVDPEYLKERRVYVTLTCAFRYGREDLDVLGLTFRKDLFVANVQSFPPAPEDKKPLTRLQERLIKKLGEHAYPFTFEIPPNLPCSVTLQPGPEDTGKACGVDYEVKAFCAENLEEKIHKRNSVRLVIRKVQYAPERPGPQPTAETTRQFLMSDKPLHLEASLDKEIYYHGEPISVNVHVTNNTNKTVKKIKISVRQYADICLFNTAQYKCPVAMEEADDTVAPSSTFCKVYTLTPFLANNREKRGLALDGKLKHEDTNLASSTLLREGANREILGIIVSYKVKVKLVVSRGGLLGDLASSDVAVELPFTLMHPKPKEEPPHREVPEHETPVDTNLIELDTNDDDIVYEDFARQRLKGMKDDKEEEEDGTGSPRLNDR
modifications: 3,5-difluorotyrosine (F2Y) at 388
notes: β-arrestin-1, bovine, full-length cDNA in pET22b, amber codon at F388 read as F2Y; source: E. coli BL21 (DE3) with pEVOL-F2YRS and F2Y in the medium, purified (Ni-NTA, gel filtration)
With B5, the binding result is reported as “binds”.

B6: β-arrestin-1-K138-F2Y (natural protein, bovine, UniProt P17870 1-418, looked up)
chain: MGDKGTRVFKKASPNGKLTVYLGKRDFVDHIDLVEPVDGVVLVDPEYLKERRVYVTLTCAFRYGREDLDVLGLTFRKDLFVANVQSFPPAPEDKKPLTRLQERLIKKLGEHAYPFTFEIPPNLPCSVTLQPGPEDTGYACGVDYEVKAFCAENLEEKIHKRNSVRLVIRKVQYAPERPGPQPTAETTRQFLMSDKPLHLEASLDKEIYYHGEPISVNVHVTNNTNKTVKKIKISVRQYADICLFNTAQYKCPVAMEEADDTVAPSSTFCKVYTLTPFLANNREKRGLALDGKLKHEDTNLASSTLLREGANREILGIIVSYKVKVKLVVSRGGLLGDLASSDVAVELPFTLMHPKPKEEPPHREVPEHETPVDTNLIELDTNDDDIVFEDFARQRLKGMKDDKEEEEDGTGSPRLNDR
modifications: 3,5-difluorotyrosine (F2Y) at 138
notes: β-arrestin-1, bovine, full-length cDNA in pET22b, amber codon at K138 read as F2Y; source: E. coli BL21 (DE3) with pEVOL-F2YRS and F2Y in the medium, purified (Ni-NTA, gel filtration)
For B6, the binding result is reported as “binds”.

The values above are taken from publication PMC4569848 (Nature Communications, 2015).
